Patent publication US8124835B2, “Acyl-coa-dependent diacylglycerol acyltransferas 1 (DGAT1) gene from Tropaeolum majus, protein encoded thereby and uses thereof” (National Research Council of Canada, priority 2006, dated 2012)

Tested on: DGAT activity
Experiment: TmDGAT1 expressed in Sf9 insect cells, DGAT assay of membrane fractions
Format: biochemical, Tropaeolum majus
Details: Sf9 total membrane fraction (100,000×g pellet), 48 hours; sn-1,2-diolein + [1-14C]oleoyl-CoA
Description: FIG. 7. Expression of T. majus DGAT1 in baculovirus insect cells. TmDGAT1 activity was determined using membranes isolated from insect cells infected with wild type baculovirus (Control) and TmDGAT1 recombinant baculovirus in the presence of sn-1,2-diolein and [1-^14C]oleoyl-CoA.
The coding region of TmDGAT1 (SEQ. ID. NO: 2) was sub-cloned into pFastBAC for expression of the protein in an insect cell expression system (Bac-to-Bac baculovirus expression system, Invitrogen). Escherichia coli DH10Bac cells were transformed with the construct to generate recombinant bacmid DNA, and then the bacmid DNA was isolated and used to transfect Sf9 insect cells. The virus stock harvested from the transfected cells was used to re-infect fresh Sf9 insect cells. Insect cells (2.5×10^6 per 25 cm^2 dish) were infected with virus and were collected at 48 h by centrifugation and washed twice with PBS (Hobbs et al., 1999). […]
DGAT assays were conducted at pH 7.4, with shaking at 100 rev/min in a water bath at 30° C. for 60 min. […] The ^14C-labelled TAGs were isolated by TLC on silica gel G plates developed in hexane:diethyl ether:acetic acid (70:30:1 v/v/v/), the radiolabelled TAG bands visualized on a Bioscan AR-2000 radio-TLC scanner using Win-Scan 2D© software (Bioscan Inc., Washington D.C., USA) and the bands scraped and quantified as described by Taylor et al. (1991). […]

B1: TmDGAT1: Tropaeolum majus acyl-CoA-dependent diacylglycerol acyltransferase 1, 518 amino acids (SEQ ID NO: 3), encoded by ORF SEQ ID NO: 2 (protein, listed as Tropaeolum majus)
chain: MAVAESSQNTTTMSGHGDSDLNNFRRRKPSSSVIEPSSSGFTSTNGVPATGHVAENRDQDRVGAMENATGSVNLIGNGGGVVIGNEEKQVGETDIRFTYRPSFPAHRRVRESPLSSDAIFKQSHAGLFNLCIVVLIAVNSRLIIENLMKYGWLIDTGFWFSSRSLGDWSIFMCCLTLPIFPLAAFIVEKLVQRNHISELVAVLLHVIVSTAAVLYPVIVILTCDSVYMSGVVLMLFGCIMWLKLVSYAHTSSDIRTLAKSGYKGDAHPNSTIVSCSYDVSLKSLAYFMVAPTLCYQPSYPRSSCIRKGWVVRQFVKLIVFIGLMGFIIEQYINPIVRNSKHPLKGDFLYAIERVLKLSVPNLYVWLCMFYSFFHLWLNILAELLRFGDREFYKDWWNAKTVAEYWKMWNMPVHRWMVRHLYFPCLRNGIPKEGAIIIAFLVSGAFHELCIAVPCHVFKLWAFIGIMFQVPLVLITNYLQEKFSNSMVGNMIFWFIFCILGQPMCVLLYYHDLINLKEK
How did the “DGAT activity relative to membrane fraction from control cells infected with vector only” value turn out when B1 was run?
Its value is “about 10 fold”.
